According to CN114426577A (CHINESE DISEASE PREVENTION AND CONTROL CENTER FOR …, dated 2022):
Substitutions are numbered along the chain they refer to.

B1: LHC11 (antibody, V domains shown)
VH: EVQLVESGGGLIQPGGSLKLSCAATEIIVSRNYMTWVRQAPGKGLEWVSIIYPGGSSFYAESVKGRFTISRDEPKNTLFLQMNSLRVEDTAVYYCARGYGDYYFDFWGQGTLVTVSS
VL: EIVLTQSPVTLSLSPGERATLSCRASQSVSSSYLAWYQQKPGQAPRLLIYGASSRATGIPDRFSGSGSGTDFTLTISRLEPEDFAVYYCQQWLTFGGGTKVEIKV
B2: LHD2 (antibody, V domains shown)
VH: QMQLVQSGPEVKKPGTSLKVSCKASGFAFTTSAVQWVRQARGQPLEWIGWIAVGSGKADYAQRFQERVTISRDMSTTTAYMELSSLSSEDTAVYFCAAPFCTRTTCLDGFDIWGQGTMVTVSS
VL: EIVLTQSPVTLSLSPGERATLSCRAGQSVSRNYLGWYQQKPGQAPRLLIYAASSRATGIPDRFSGRGSGTDFTLTISRLEPEDFAVYYCQQYGTSPWTFGQGTKVEIKV
B3: LHD7 (antibody, V domains shown)
VH: QMQLVQSGPEVKKPGTSVKVSCKASGFTFITAAVQWVRQARGQRLEWIGWIAVGSGKTDYAQKFQERVTITRDISTSTAYMEVKSLRSEDTALYYCAAPQCNRTTCLDGFDIWGQGTKVIVSS
VL: B2 VL with G26S, N32S, A51G, S64R, R66S
B4: SWB8 (antibody, V domains shown)
VH: EVQLVESGGGLVQPGGSLRLSCAASGFTIRSYEMNWVRQAPGKGLEWVSYISSSGTTIYYADSVKGRFTISRDTAKNSLYLQMNSLRAEDTAVYYCAREGDYPSAEYFHHWGQGTLVTVSS
VL: DIVMTQSSVSLAVSLGERATINCKSSQSVLYSSTNRSYLAWYQQKPGQSPKLLIYWASTRESGVPDRFSGSGSGTDFTLTISSLQAEDVAVYYCQQYYSTRRTFGQGTKLEIKR

biological target: SARS-Cov-2 Omicron变异株的生物素化RBD(South Africa/CERI-KRISP-K032195/2021) (SARS-CoV-2 Omicron variant, UniProt P0DTC2 319-541); experiment: not given

**Q.** With B1 as the binder, how does the Kd read?
**A.** 960 pM

**Q.** B2 was tested. Which Kd did it give?
**A.** < 1 pM

**Q.** Which Kd does the source give for B3 here?
**A.** < 1 pM

**Q.** B4 was tested. Which Kd did it give?
**A.** < 1 pM

biological target: SARS-CoV-2 S蛋白 (Delta变异株, 假病毒) (SARS-CoV-2 Delta variant, UniProt P0DTC2 14-1273); experiment: cell-based or functional assay

**Q.** Which “假病毒中和能力(IC50)” value does the source give for B1 here?
**A.** 0.027 mg/L

**Q.** How did the “假病毒中和能力(IC50)” value turn out when B2 was run?
**A.** 0.005 mg/L

**Q.** Which “假病毒中和能力(IC50)” value does the source give for B3 here?
**A.** 0.008 mg/L

**Q.** With B4 as the binder, how does the “假病毒中和能力(IC50)” value read?
**A.** 0.018 mg/L

biological target: SARS-CoV-2 S蛋白 (Omicron变异株, 假病毒) (SARS-CoV-2 Omicron variant, UniProt P0DTC2 14-1273); experiment: cell-based or functional assay

**Q.** B1 was tested. Which “假病毒中和能力(IC50)” value did it give?
**A.** 0.024 mg/L

**Q.** With B2 as the binder, how does the “假病毒中和能力(IC50)” value read?
**A.** 0.045 mg/L

**Q.** B3 was tested. Which “假病毒中和能力(IC50)” value did it give?
**A.** 0.025 mg/L

**Q.** For B4, which “假病毒中和能力(IC50)” value is on record?
**A.** 0.032 mg/L
